The results in this text go back to the supplement of paper PMC10567573.

First the molecules themselves.
B1: C22orf15 (parent)
chain: RGRHEQSPTSRPRKVSSLPPRSC
B2: ZNF277 (parent)
chain: ILREELQKQRLREILEQQQQERND
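Note: lentivirally expressed fusions sorted by FACS into six bins by GFP to DsRed ratio, PSI derived from sequencing read proportions per bin multiplied by bin number.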

The first series covers variants of B1. As to the kind of experiment: protein stability index of a GFP-peptide fusion (GPS, HEK-293T) (PSI 1-6); higher = more stable. The conditions noted are these: c terminus: native.
Regarding RGLHEQSPTSRPRKVSSLPPRSC, the protein stability index is 4.27.

In the case of RGHHEQSPTSRPRKVSSLPPRSC, the protein stability index amounted to 2.76.

Take RGCHEQSPTSRPRKVSSLPPRSC: the protein stability index was 3.01.

Regarding RGVHEQSPTSRPRKVSSLPPRSC, the protein stability index worked out at 2.05.

As for RGKHEQSPTSRPRKVSSLPPRSC, the protein stability index worked out at 2.27.

Turning to RGIHEQSPTSRPRKVSSLPPRSC, the protein stability index was 3.03.

In the case of MGRHEQSPTSRPRKVSSLPPRSC, the protein stability index stood at 3.56.

In the case of VGRHEQSPTSRPRKVSSLPPRSC, the protein stability index amounted to 1.73.

Regarding YGRHEQSPTSRPRKVSSLPPRSC, the protein stability index was found to be 3.26.

Take WGRHEQSPTSRPRKVSSLPPRSC: the protein stability index came out at 3.77.

Turning to AGRHEQSPTSRPRKVSSLPPRSC, the protein stability index came out at 3.06.

With DGRHEQSPTSRPRKVSSLPPRSC, the protein stability index was 2.81.

Take RHRHEQSPTSRPRKVSSLPPRSC: the protein stability index turned out to be 1.16.

Turning to RSRHEQSPTSRPRKVSSLPPRSC, the protein stability index was found to be 3.1.

Take RIRHEQSPTSRPRKVSSLPPRSC: the protein stability index stood at 2.64.

As to RCRHEQSPTSRPRKVSSLPPRSC, the protein stability index turned out to be 1.57.

Consider RQRHEQSPTSRPRKVSSLPPRSC, for which the protein stability index worked out at 2.2.

In the case of RMRHEQSPTSRPRKVSSLPPRSC, the protein stability index is 1.9.

As to RRRHEQSPTSRPRKVSSLPPRSC, the protein stability index amounted to 2.96.

RFRHEQSPTSRPRKVSSLPPRSC: the protein stability index amounted to 2.04.

With RDRHEQSPTSRPRKVSSLPPRSC, the protein stability index was found to be 2.01.

For the variant RYRHEQSPTSRPRKVSSLPPRSC, the protein stability index was 3.84.

On to RERHEQSPTSRPRKVSSLPPRSC, for which the protein stability index was 1.27.

Consider RGRNEQSPTSRPRKVSSLPPRSC, for which the protein stability index is 3.03.

In the case of RGRIEQSPTSRPRKVSSLPPRSC, the protein stability index turned out to be 3.17.

With RGRFEQSPTSRPRKVSSLPPRSC, the protein stability index came to 2.91.

As for RGRAEQSPTSRPRKVSSLPPRSC, the protein stability index came out at 1.91.

For the variant RGRREQSPTSRPRKVSSLPPRSC, the protein stability index came out at 3.58.

On to RGRCEQSPTSRPRKVSSLPPRSC, for which the protein stability index was 2.55.

In another series the parent is B2. The series is described as above. The note with it: c terminus: a fixed tail appended.
For ILREELQKQRLREILEQQQQERNG, the protein stability index is 3.77.

With ILREELQKQRLREILEQQQQERNY, the protein stability index turned out to be 3.7.

With ILREELQKQRLREILEQQQQERNW, the protein stability index is 2.73.

Take ILREELQKQRLREILEQQQQERNM: the protein stability index is 4.14.

With ILREELQKQRLREILEQQQQERNN, the protein stability index was found to be 4.08.

Regarding ILREELQKQRLREILEQQQQERNF, the protein stability index was 3.26.

Consider ILREELQKQRLREILEQQQQERNA, for which the protein stability index is 3.47.

ILREELQKQRLREILEQQQQERNL: the protein stability index was 4.08.

Regarding ILREELQKQRLREILEQQQQERNE, the protein stability index worked out at 4.12.

Take ILREELQKQRLREILEQQQQERNQ: the protein stability index is 4.18.

In the case of ILREELQKQRLREILEQQQQERNI, the protein stability index amounted to 3.64.

Take ILREELQKQRLREILEQQQQERNC: the protein stability index stood at 3.91.

On to ILREELQKQRLREILEQQQQERNH, for which the protein stability index stood at 3.16.

With ILREELQKQRLREILEQQQQERNR, the protein stability index amounted to 3.48.

For the variant ILREELQKQRLREILEQQQQERNK, the protein stability index was 3.83.

On to ILREELQKQRLREILEQQQQERNV, for which the protein stability index is 4.05.

For the variant ILREELQKQRLREILEQQQQERNT, the protein stability index came out at 4.01.

With ILREELQKQRLREILEQQQQERNS, the protein stability index came to 3.68.

For ILREELQKQRLREILEQQQQERNP, the protein stability index worked out at 3.85.

On to ILREELQKQRLREILEFQQQERND, for which the protein stability index was determined as 3.87.

As for ILREELQKQRLREILEGQQQERND, the protein stability index turned out to be 4.25.

Take ILREELQKQRLREILEVQQQERND: the protein stability index worked out at 4.22.

Turning to ILREELQKQRLREILEHQQQERND, the protein stability index stood at 4.38.

For the variant ILREELQKQRLREILESQQQERND, the protein stability index worked out at 4.63.

In the case of ILREELQKQRLREILECQQQERND, the protein stability index was found to be 3.6.

In the case of ILREELQKQRLREILERQQQERND, the protein stability index amounted to 3.77.

In the case of ILREELQKQRLREILEDQQQERND, the protein stability index was 4.54.

For the variant ILREELQKQRLREILEPQQQERND, the protein stability index came out at 4.2.

As for ILREELQKQRLREILEMQQQERND, the protein stability index was found to be 3.88.

As to ILREELQKQRLREILELQQQERND, the protein stability index came to 4.29.

As for ILREELQKQRLREILEEQQQERND, the protein stability index came out at 4.82.

For the variant ILREELQKQRLREILEIQQQERND, the protein stability index stood at 3.33.

Turning to ILREELQKQRLREILETQQQERND, the protein stability index is 4.16.

As to ILREELQKQRLREILENQQQERND, the protein stability index is 4.51.

As for ILREELQKQRLREILEAQQQERND, the protein stability index was found to be 3.83.

ILREELQKQRLREILEWQQQERND: the protein stability index was 3.49.

Regarding ILREELQKQRLREILEQQVQERND, the protein stability index was 4.44.

As for ILREELQKQRLREILEQQNQERND, the protein stability index turned out to be 3.5.

For ILREELQKQRLREILEQQTQERND, the protein stability index came out at 3.64.

For ILREELQKQRLREILEQQCQERND, the protein stability index is 4.45.

As for ILREELQKQRLREILEQQHQERND, the protein stability index turned out to be 4.67.

Regarding ILREELQKQRLREILEQQSQERND, the protein stability index is 4.41.

In the case of ILREELQKQRLREILEQQGQERND, the protein stability index was determined as 4.57.

With ILREELQKQRLREILEQQDQERND, the protein stability index worked out at 4.4.

As to ILREELQKQRLREILEQQLQERND, the protein stability index is 3.87.

Consider ILREELQKQRLREILEQQFQERND, for which the protein stability index turned out to be 2.91.

As to ILREELQKQRLREILEQQPQERND, the protein stability index was determined as 4.29.

For the variant ILREELQKQRLREILEQQWQERND, the protein stability index came out at 2.85.

As to ILREELQKQRLREILEQQYQERND, the protein stability index stood at 3.98.

As for ILREELQKQRLREILEQQEQERND, the protein stability index came to 3.98.

As to ILREELQKQRLREILEQQAQERND, the protein stability index is 4.13.

For ILREELQKQRLREILEQQKQERND, the protein stability index is 3.7.

For ILREELQKQRLREILEQQMQERND, the protein stability index was found to be 3.35.

With ILREELQKQRLREILEQQQQKRND, the protein stability index came out at 4.26.

With ILREELQKQRLREILEQQQQWRND, the protein stability index was 2.95.

Take ILREELQKQRLREILEQQQQTRND: the protein stability index amounted to 4.09.

Take ILREELQKQRLREILEQQQQQRND: the protein stability index is 3.38.

With ILREELQKQRLREILEQQQQFRND, the protein stability index is 3.4.

Regarding ILREELQKQRLREILEQQQQARND, the protein stability index was 4.39.

For the variant ILREELQKQRLREILEQQQQPRND, the protein stability index was found to be 3.04.

Consider ILREELQKQRLREILEQQQQCRND, for which the protein stability index amounted to 3.04.

Regarding ILREELQKQRLREILEQQQQYRND, the protein stability index turned out to be 3.73.

For the variant ILREELQKQRLREILEQQQQIRND, the protein stability index was determined as 2.94.

Take ILREELQKQRLREILEQQQQHRND: the protein stability index came out at 4.61.

ILREELQKQRLREILEQQQQDRND: the protein stability index was determined as 4.22.
